{"source": "the supplement of paper PMC9112550", "about": "“Optimization of the antimicrobial peptide Bac7 by deep mutational scanning” (BMC Biology, 2022);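 further: peptides expressed intracellularly from a pBAD plasmid library in pooled LB shake-flask culture, induced with 0.3% L-arabinose, DNA abundance read by NGS, three biological replicates, DESeq2 with apeglm shrinkage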", "test_system": "Escherichia coli TOP10", "test": "shrunken log2 fold change of peptide-encoding DNA abundance (4.5 h post-induction vs induction); higher = less antimicrobial activity (less host growth inhibition)", "settings": "time post-induction: 4.5 h; library: site-saturation at positions 5, 18, 19, 20"}
{"sequence": "RRIRHRPPRLPRPRPRPNNCPRP", "values": [{"measurement": "shrunken log2 fold change", "value": -0.0202}]}
{"sequence": "RRIRDRPPRLPRPRPRPKRLPRP", "values": [{"measurement": "shrunken log2 fold change", "value": -0.0451}]}
{"sequence": "RRIRVRPPRLPRPRPRPHTCPRP", "values": [{"measurement": "shrunken log2 fold change", "value": -0.345}]}
{"sequence": "RRIRDRPPRLPRPRPRPCTAPRP", "values": [{"measurement": "shrunken log2 fold change", "value": 0.00714}]}
{"sequence": "RRIRERPPRLPRPRPRPQYIPRP", "values": [{"measurement": "shrunken log2 fold change", "value": -0.219}]}
{"sequence": "RRIRFRPPRLPRPRPRPTDFPRP", "values": [{"measurement": "shrunken log2 fold change", "value": -0.302}]}
{"sequence": "RRIRCRPPRLPRPRPRPKQLPRP", "values": [{"measurement": "shrunken log2 fold change", "value": -0.0668}]}
{"sequence": "RRIRMRPPRLPRPRPRPKWLPRP", "values": [{"measurement": "shrunken log2 fold change", "value": 0.612}]}
{"sequence": "RRIRMRPPRLPRPRPRPTHDPRP", "values": [{"measurement": "shrunken log2 fold change", "value": 0.81}]}
{"sequence": "RRIRGRPPRLPRPRPRPLLIPRP", "values": [{"measurement": "shrunken log2 fold change", "value": 0.61}]}
{"sequence": "RRIRIRPPRLPRPRPRPVEHPRP", "values": [{"measurement": "shrunken log2 fold change", "value": 0.0873}]}
{"sequence": "RRIRKRPPRLPRPRPRPQSHPRP", "values": [{"measurement": "shrunken log2 fold change", "value": 0.353}]}
{"sequence": "RRIRVRPPRLPRPRPRPHIEPRP", "values": [{"measurement": "shrunken log2 fold change", "value": -0.763}]}
{"sequence": "RRIRVRPPRLPRPRPRPLPMPRP", "values": [{"measurement": "shrunken log2 fold change", "value": 0.0885}]}
{"sequence": "RRIRTRPPRLPRPRPRPTFPPRP", "values": [{"measurement": "shrunken log2 fold change", "value": -0.0187}]}
{"sequence": "RRIRMRPPRLPRPRPRPKMRPRP", "values": [{"measurement": "shrunken log2 fold change", "value": 1.21}]}
{"sequence": "RRIRYRPPRLPRPRPRPMKYPRP", "values": [{"measurement": "shrunken log2 fold change", "value": -0.00968}]}
{"sequence": "RRIRLRPPRLPRPRPRPPQNPRP", "values": [{"measurement": "shrunken log2 fold change", "value": 1.26}]}
{"sequence": "RRIRMRPPRLPRPRPRPNKAPRP", "values": [{"measurement": "shrunken log2 fold change", "value": -0.05}]}
{"sequence": "RRIRQRPPRLPRPRPRPPAIPRP", "values": [{"measurement": "shrunken log2 fold change", "value": -0.0632}]}
{"sequence": "RRIRIRPPRLPRPRPRPSAFPRP", "values": [{"measurement": "shrunken log2 fold change", "value": -0.15}]}
{"sequence": "RRIRARPPRLPRPRPRPGEFPRP", "values": [{"measurement": "shrunken log2 fold change", "value": 0.388}]}
{"sequence": "RRIRFRPPRLPRPRPRPCPAPRP", "values": [{"measurement": "shrunken log2 fold change", "value": 1.36}]}
{"sequence": "RRIRMRPPRLPRPRPRPQCLPRP", "values": [{"measurement": "shrunken log2 fold change", "value": -0.108}]}
{"sequence": "RRIRHRPPRLPRPRPRPPQIPRP", "values": [{"measurement": "shrunken log2 fold change", "value": -0.0667}]}
{"sequence": "RRIRGRPPRLPRPRPRPMNTPRP", "values": [{"measurement": "shrunken log2 fold change", "value": 0.632}]}
{"sequence": "RRIRYRPPRLPRPRPRPEKCPRP", "values": [{"measurement": "shrunken log2 fold change", "value": -0.26}]}
{"sequence": "RRIRKRPPRLPRPRPRPNWDPRP", "values": [{"measurement": "shrunken log2 fold change", "value": 1.4}]}
{"sequence": "RRIRSRPPRLPRPRPRPCRQPRP", "values": [{"measurement": "shrunken log2 fold change", "value": -0.184}]}
{"sequence": "RRIRSRPPRLPRPRPRPQGHPRP", "values": [{"measurement": "shrunken log2 fold change", "value": 0.00442}]}
{"sequence": "RRIRYRPPRLPRPRPRPTFGPRP", "values": [{"measurement": "shrunken log2 fold change", "value": -0.0386}]}
{"sequence": "RRIRLRPPRLPRPRPRPYYSPRP", "values": [{"measurement": "shrunken log2 fold change", "value": -0.309}]}
{"sequence": "RRIRRRPPRLPRPRPRPIPPPRP", "values": [{"measurement": "shrunken log2 fold change", "value": 0.452}]}
{"sequence": "RRIRPRPPRLPRPRPRPYERPRP", "values": [{"measurement": "shrunken log2 fold change", "value": 0.0304}]}
{"sequence": "RRIRGRPPRLPRPRPRPIEMPRP", "values": [{"measurement": "shrunken log2 fold change", "value": 0.0736}]}
{"sequence": "RRIRFRPPRLPRPRPRPMRPPRP", "values": [{"measurement": "shrunken log2 fold change", "value": 0.654}]}
{"sequence": "RRIRDRPPRLPRPRPRPCHWPRP", "values": [{"measurement": "shrunken log2 fold change", "value": -0.00151}]}
{"sequence": "RRIRFRPPRLPRPRPRPFCQPRP", "values": [{"measurement": "shrunken log2 fold change", "value": -0.317}]}
{"sequence": "RRIRERPPRLPRPRPRPFYLPRP", "values": [{"measurement": "shrunken log2 fold change", "value": -0.648}]}
{"sequence": "RRIRNRPPRLPRPRPRPYKFPRP", "values": [{"measurement": "shrunken log2 fold change", "value": -0.286}]}
{"sequence": "RRIRMRPPRLPRPRPRPGSLPRP", "values": [{"measurement": "shrunken log2 fold change", "value": 0.432}]}
{"sequence": "RRIRKRPPRLPRPRPRPFQFPRP", "values": [{"measurement": "shrunken log2 fold change", "value": -0.018}]}
{"sequence": "RRIRHRPPRLPRPRPRPISTPRP", "values": [{"measurement": "shrunken log2 fold change", "value": -0.578}]}
{"sequence": "RRIRQRPPRLPRPRPRPGKDPRP", "values": [{"measurement": "shrunken log2 fold change", "value": -0.115}]}
{"sequence": "RRIRFRPPRLPRPRPRPSHRPRP", "values": [{"measurement": "shrunken log2 fold change", "value": -0.214}]}
{"sequence": "RRIRYRPPRLPRPRPRPAARPRP", "values": [{"measurement": "shrunken log2 fold change", "value": 0.0304}]}
{"sequence": "RRIRKRPPRLPRPRPRPDIFPRP", "values": [{"measurement": "shrunken log2 fold change", "value": -0.178}]}
{"sequence": "RRIRSRPPRLPRPRPRPAKWPRP", "values": [{"measurement": "shrunken log2 fold change", "value": 0.235}]}
{"sequence": "RRIRTRPPRLPRPRPRPHISPRP", "values": [{"measurement": "shrunken log2 fold change", "value": -0.0286}]}
{"sequence": "RRIRTRPPRLPRPRPRPCPPPRP", "values": [{"measurement": "shrunken log2 fold change", "value": -0.143}]}
{"sequence": "RRIRPRPPRLPRPRPRPNMMPRP", "values": [{"measurement": "shrunken log2 fold change", "value": -0.593}]}
{"sequence": "RRIRKRPPRLPRPRPRPYHQPRP", "values": [{"measurement": "shrunken log2 fold change", "value": -0.231}]}
{"sequence": "RRIRYRPPRLPRPRPRPGWTPRP", "values": [{"measurement": "shrunken log2 fold change", "value": -0.103}]}
{"sequence": "RRIRSRPPRLPRPRPRPHEFPRP", "values": [{"measurement": "shrunken log2 fold change", "value": -0.315}]}
{"sequence": "RRIRCRPPRLPRPRPRPFPMPRP", "values": [{"measurement": "shrunken log2 fold change", "value": -0.274}]}
{"sequence": "RRIRRRPPRLPRPRPRPKTPPRP", "values": [{"measurement": "shrunken log2 fold change", "value": 0.782}]}
{"sequence": "RRIRIRPPRLPRPRPRPYKQPRP", "values": [{"measurement": "shrunken log2 fold change", "value": -0.101}]}
{"sequence": "RRIRERPPRLPRPRPRPKCKPRP", "values": [{"measurement": "shrunken log2 fold change", "value": -0.173}]}
{"sequence": "RRIRVRPPRLPRPRPRPDIKPRP", "values": [{"measurement": "shrunken log2 fold change", "value": -0.912}]}
{"sequence": "RRIRWRPPRLPRPRPRPDFCPRP", "values": [{"measurement": "shrunken log2 fold change", "value": 0.247}]}
{"sequence": "RRIRLRPPRLPRPRPRPIEDPRP", "values": [{"measurement": "shrunken log2 fold change", "value": 0.0562}]}
{"sequence": "RRIRARPPRLPRPRPRPRVLPRP", "values": [{"measurement": "shrunken log2 fold change", "value": 0.189}]}
{"sequence": "RRIRVRPPRLPRPRPRPHANPRP", "values": [{"measurement": "shrunken log2 fold change", "value": 0.25}]}
{"sequence": "RRIRYRPPRLPRPRPRPLIWPRP", "values": [{"measurement": "shrunken log2 fold change", "value": -0.256}]}
{"sequence": "RRIRVRPPRLPRPRPRPWIMPRP", "values": [{"measurement": "shrunken log2 fold change", "value": -0.0202}]}
{"sequence": "RRIRIRPPRLPRPRPRPPFQPRP", "values": [{"measurement": "shrunken log2 fold change", "value": 0.0365}]}
{"sequence": "RRIRIRPPRLPRPRPRPLARPRP", "values": [{"measurement": "shrunken log2 fold change", "value": 0.346}]}
{"sequence": "RRIRERPPRLPRPRPRPMPLPRP", "values": [{"measurement": "shrunken log2 fold change", "value": 0.000847}]}
{"sequence": "RRIRIRPPRLPRPRPRPWMVPRP", "values": [{"measurement": "shrunken log2 fold change", "value": -0.619}]}
{"sequence": "RRIRHRPPRLPRPRPRPQRGPRP", "values": [{"measurement": "shrunken log2 fold change", "value": -0.0034}]}
{"sequence": "RRIRHRPPRLPRPRPRPFIMPRP", "values": [{"measurement": "shrunken log2 fold change", "value": -0.505}]}
{"sequence": "RRIRQRPPRLPRPRPRPQDTPRP", "values": [{"measurement": "shrunken log2 fold change", "value": -0.555}]}
{"sequence": "RRIRQRPPRLPRPRPRPVVSPRP", "values": [{"measurement": "shrunken log2 fold change", "value": -0.179}]}
{"sequence": "RRIRCRPPRLPRPRPRPNAYPRP", "values": [{"measurement": "shrunken log2 fold change", "value": -0.502}]}
{"sequence": "RRIRMRPPRLPRPRPRPMMLPRP", "values": [{"measurement": "shrunken log2 fold change", "value": -0.15}]}
{"sequence": "RRIRMRPPRLPRPRPRPFGMPRP", "values": [{"measurement": "shrunken log2 fold change", "value": -0.0241}]}
{"sequence": "RRIRDRPPRLPRPRPRPTVQPRP", "values": [{"measurement": "shrunken log2 fold change", "value": 0.158}]}
{"sequence": "RRIRWRPPRLPRPRPRPDHNPRP", "values": [{"measurement": "shrunken log2 fold change", "value": -0.302}]}
{"sequence": "RRIRWRPPRLPRPRPRPVYFPRP", "values": [{"measurement": "shrunken log2 fold change", "value": -0.418}]}
{"sequence": "RRIRERPPRLPRPRPRPLEAPRP", "values": [{"measurement": "shrunken log2 fold change", "value": 0.105}]}
{"sequence": "RRIRQRPPRLPRPRPRPEMIPRP", "values": [{"measurement": "shrunken log2 fold change", "value": -0.0264}]}
{"sequence": "RRIRPRPPRLPRPRPRPINMPRP", "values": [{"measurement": "shrunken log2 fold change", "value": -0.503}]}
{"sequence": "RRIRNRPPRLPRPRPRPCDLPRP", "values": [{"measurement": "shrunken log2 fold change", "value": -0.0345}]}
{"sequence": "RRIRVRPPRLPRPRPRPHWSPRP", "values": [{"measurement": "shrunken log2 fold change", "value": -0.191}]}
{"sequence": "RRIRMRPPRLPRPRPRPQLQPRP", "values": [{"measurement": "shrunken log2 fold change", "value": 0.165}]}
{"sequence": "RRIRGRPPRLPRPRPRPQNDPRP", "values": [{"measurement": "shrunken log2 fold change", "value": 0.128}]}
{"sequence": "RRIRPRPPRLPRPRPRPLFWPRP", "values": [{"measurement": "shrunken log2 fold change", "value": 0.296}]}
{"sequence": "RRIRIRPPRLPRPRPRPQDEPRP", "values": [{"measurement": "shrunken log2 fold change", "value": 0.0381}]}
{"sequence": "RRIRYRPPRLPRPRPRPGNVPRP", "values": [{"measurement": "shrunken log2 fold change", "value": 0.0571}]}
{"sequence": "RRIRFRPPRLPRPRPRPDSWPRP", "values": [{"measurement": "shrunken log2 fold change", "value": -0.161}]}
{"sequence": "RRIRTRPPRLPRPRPRPYIFPRP", "values": [{"measurement": "shrunken log2 fold change", "value": -0.947}]}
